Paper PMC3276543, “Structural Basis of Transcriptional Gene Silencing Mediated by Arabidopsis MOM1” (PLoS Genetics, 2012)

Target: the molecule itself
Assay: crystal structure; hanging drop vapor diffusion at 4°C, 0.1 M Tris pH 8.5, 0.3 M magnesium formate dihydrate; SAD phasing with seleno-methionine protein; native data to 3.2 Å

B1: MOM1 fragment corresponding to amino acid positions 1700 to 1814 (CMM2-containing protein fragment) (domain or fragment, Arabidopsis thaliana, UniProt Q9M658 1700-1814, looked up)
chain: HSAGVTALVPSLLNNGTEQIAVQPVPQIPFPVFNDPFLHELEKLRRESENSKKTFEEKKSILKAELERKMAEVQAEFRRKFHEVEAEHNTRTTKIEKDKNLVIMNKLLANAFLSK
notes: MORPHEUS' MOLECULE1 (MOM1), Arabidopsis thaliana, protein of 2001 amino acids, residues 1700-1814; residues 1729-1811 are ordered in the crystal; A seleno-methionine-containing form (E. coli strain 834) was used for phasing only; the 3.2 A data set is of the native protein; also called CMM2 protein fragment; CMM2 domain
- stoichiometry N: 2
